In patent publication US12558435B2, “Transient inhibition of p53 in gene therapy” (Ospedale San Raffaele S.R.L., priority 2018, dated 2026):

What was measured:
CDKN2A = assay: TaqMan assay of CDKN2A gene expression; format: cell-based, human; settings: 24 hours post-editing; FIG. 16C-D
human CD34+ cells [1] = format: cell-based
Protocol: CD34+ cells were either freshly purified from human CB after obtaining informed consent and upon approval by the Ospedale San Raffaele Bioethical Committee, or purchased frozen from Lonza. CD34+ cells were edited according to a previously optimized protocol (Schiroli et al. 2017 supra).
Briefly, 5×10^5 CD34+ cells/ml were stimulated in serum-free StemSpan medium (StemCell Technologies) supplemented with penicillin, streptomycin, glutamine, 1 μM SR-1 (Biovision), […] (STEMCell Technologies), 10 μM PGE2 added only at the beginning of the culture (Cayman), and human early-acting cytokines (SCF 100 ng/ml, Flt3-L 100 ng/ml, TPO 20 ng/ml, and IL-6 20 ng/ml; all purchased from Peprotech). After 3 days of prestimulation, cells were washed with PBS and electroporated using P3 Primary Cell 4D-Nucleofector X Kit and program EO-100 (Lonza). Cells were electroporated with 2.5-1.25 μM of RNPs.
Transduction with AAV6 was performed at a dose of 1-2×10^4 vg/cell 15′ after electroporation. GSE56 mRNA was utilized were indicated at a dose of 150 μg/ml. Gene editing efficiency was measured from cultured cells in vitro 3 days after electroporation by flow cytometry measuring the percentage of cells expressing the GFP marker or by digital droplet PCR analysis designing primers and probe on the junction between the vector sequence and the targeted locus and on control sequences utilized as normalizer as previously described (Schiroli et al. 2017 supra).
For HDR ddPCR, primers and probes were designed on the junction between the vector sequence and the targeted locus and on control sequences used for normalization (human TTC5 genes). Thermal conditions for annealing and extension were adjusted for each specific application as follows: AAVS1/Intron 1 IL2RG HDR 3′ integration junction ddPCR: 55° C. for 30 sec, 72° C. for 2 min. Primers and probes for PCR and ddPCR amplifications are shown below.
CD34^+ cells were purchased frozen from Lonza. CD34^+ cells were edited according to a previously optimised protocol (Schiroli, G. et al (2017) Sci Transl Med 9). Briefly, 1-5×10^5 CD34^+ cells/ml were stimulated in serum-free StemSpan medium (StemCell Technologies) supplemented with penicillin, streptomycin, glutamine, 1 μM of the arylhydrocarbon receptor antagonist SR-1 (Biovision), […] of the pyrimidoindole-derivative UM171 (STEMCell Technologies), 10 μM of the 15-hydroxy PGDH competitive inhibitor dmPGE-2 added only at the beginning of the culture (Cayman), and human early-acting cytokines (SCF 100 ng/ml, Flt3-L 100 ng/ml, TPO 20 ng/ml, and IL-6 20 ng/ml; all purchased from Peprotech). After 3 days of pre-stimulation, cells were washed with PBS and electroporated using P3 Primary Cell 4D-Nucleofector X Kit and program EO-100 (Lonza). Cells were electroporated with 1-1.2 μM of RNPs. Where specified, electroporation mixture was supplemented with Ad5-E4orf1, Ad5-E4orf6/7 and GSE56/Ad5-E4orf6/7 mRNAs, which were respectively utilized at doses of 120, 80 and 200 μg/ml, or Ad5-E1B55K and Ad5-E4orf6 mRNAs were used at 120 and 80 μg/ml. All other adenoviral protein variants were used at standard dose 120 μg/ml. Transduction with AAV-6 was performed 15 min post-electroporation at dose of 1-5×10^4 vg/cell. Where specified, CD34+ cells were stimulated for shorter time in culture (0, 24 or 48 hours) and edited as described above. Gene editing efficiency was measured from cultured cells in vitro at 4 days post-editing by flow cytometry measuring the percentage of cells expressing the GFP reporter gene or by digital droplet PCR analysis designing primers and probe on the junction between the vector sequence and the targeted locus and on control sequence utilised as normaliser as previously described (Schiroli, G. et al (2017) Sci Transl Med 9) and Schiroli et al., Cell Stem Cell 2019. […]

human CD34+ cells [2] = assay: CFU-C / colony forming cell assay of edited CD34+ cells; format: cell-based; settings: for erythroid and myeloid clonogenic output compared to standard protocol: FIG. 14G
CDK2 = assay: TaqMan assay of CDK2 gene expression; format: cell-based, human; settings: 24 hours post-editing; FIG. 16A-B
human CD34+ cells [3] = assay: Culture (subpopulation) composition of edited CD34+ cells by flow cytometry; format: cell-based
Protocol: For immunophenotypic analyses (performed on FACSCanto II; BD Pharmingen), we used the antibodies listed below. Single stained and Fluorescence Minus One stained cells were used as controls. LIVE/DEAD Fixable Dead Cell Stain Kit (Thermo Fisher), 7-aminoactinomycin (Sigma Aldrich), were included in the sample preparation for flow cytometry according to the manufacturer's instructions to exclude dead cells from the analysis. Cell sorting was performed using MoFlo XDP Cell Sorter (Beckman Coulter) or FACSAria Fusion (BD Biosciences).

[4] = test system: human CD34+ cells transplanted into NSG mice; assay: Xenotransplantation of edited human CD34+ cells in NSG mice; format: in vivo
Protocol: For transplantation, 3×10^5 CD34+ cells treated for editing at day 5 of culture were injected intravenously into NSG mice after sub-lethal irradiation (150-180 cGy). Sample size was determined by the total number of available treated cells. Mice were attributed to each experimental group randomly. Human CD45+ cell engraftment and the presence of gene-edited cells were monitored by serial collection of blood from the mouse tail and, at the end of the experiment (>20 weeks after transplantation), BM and spleen were harvested and analyzed.
NOD-SCID-IL2Rg^−/− (NSG) mice were purchased from The Jackson Laboratory and were maintained in specific-pathogen-free (SPF) conditions. The procedures involving animals were designed and performed with the approval of the Animal Care and Use Committee of the San Raffaele Hospital (IACUC #749) and communicated to the Ministry of Health and local authorities according to Italian law. For transplantation, 1.5-3×10^5 (for primary) or 2×10^6 (for secondary) CD34^+ treated cells at 24 hours post-editing protocol were injected intravenously into NSG mice after sub-lethal irradiation (180 cGy). Sample size was determined by the total number of available treated cells. Mice were attributed to each experimental group randomly. Human CD45^+ cell engraftment and the percentage of edited GFP^+ cells were monitored by serial collection of blood from the mouse tail over the weeks post-transplantation and at the end of the experiment (18-20 weeks post-transplantation) both spleen and bone-marrow were harvested and analysed.

B1: GSE56: p53 dominant negative peptide (SEQ ID No. 9), transiently overexpressed from electroporated mRNA (protein)
chain: MDGWCPGRDRRTEEENFRKKEEHCPELPPGSAKRALPTSTSSSPQQKKKPLDGEYFTLKIRGRERFEMFRELNEALELKDARAAEESGDSRAHSSYPKIVS
modifications: amino acid sequence of GSE56
CDKN2A expression (CDKN2A): still remained at basal level | increase of GFP expression compared to standard RNP+AAV6 (human CD34+ cells [1]; AAVS1, most primitive compartment (CD34+133+90+ / CD90+), 96 hours, FIG. 14C): 1.1 fold | HDR-mediated integration (GFP+ cells) in the CD34+ 133+ 90+ fraction, mean (human CD34+ cells [1]; AAVS1 or IL2RG editing, 3 days): 42% | overall efficiency of DNA repair (human CD34+ cells [1]; AAVS1 or IL2RG editing, 3 days, FIG. 3C): did not negatively impact overall efficiency of DNA repair | HDR-mediated integration at the targeted locus (human CD34+ cells [1]; AAVS1 or IL2RG editing, ddPCR, 3 days, FIG. 3C left): promoted HDR-mediated integration at the targeted locus | erythroid and myeloid clonogenic output compared to standard protocol (human CD34+ cells [2]): improved | erythroid and myeloid clonogenic output (human CD34+ cells [2]; sorted populations, FIG. 3F): increased particularly in CD90+ fraction | CDK2 expression (CDK2): remained always at basal level | relative composition of the hematopoietic populations (human CD34+ cells [3]; 3 days post editing, vs untreated controls, FIG. 3E): no change in relative composition | fraction of HDR-edited cells in the PB, average ([4]; 22 weeks post transplantation, IL2RG edited cells, FIG. 4D): 32% | engraftment in the haematopoietic organs ([4]; AAVS1, limited dose T0eq=1.5×10^5/mouse, FIG. 12C): significantly higher engraftment | percentage of human cells in the peripheral blood ([4]; CD40LG-edited cells, FIG. 13B): higher percentage of human cells | percentage of gene correction over time ([4]; CD40LG-edited cells, FIG. 13C): more stable percentage of gene correction over time | percentage of corrected cells in sorted cell types, vs standard ([4]; CD40LG-edited cells, endpoint, included CD34+ cells, FIG. 13E): 3- to 6 fold | differentiation output ([4]; IL2RG edited cells, PB lineages, FIG. 4C): without any skewing in the differentiation output | human CD45+ engraftment ([4]; IL2RG edited cells, PB of NSG mice, FIG. 4B): increased engraftment | engraftment of treated cells ([4]; discussion summary): higher engraftment of treated cells

B2: E4orf6/7: adenoviral protein from adenovirus serotype 5 E4 gene (SEQ ID No. 2), delivered as mRNA (protein)
chain: MTTSGVPFGMTLRPTRSRLSRRTPYSRDRLPPFETETRATILEDHPLLPECNTLTMHNAWTSPSPPVKQPQVGQQPVAQQLDSDMNLSELPGEFINITDERLARQETVWNITPKNMSVTHDMMLFKASRGERTVYSVCWEGGGRLNTRVL
modifications: delivered as mRNA; example amino acid sequence of Ad5-E4orf6/7
CDKN2A expression (CDKN2A): significantly up-regulated | mean increase in the percentage of primitive HSPC expressing GFP (CD34+CD133+CD90+GFP+) (human CD34+ cells [1]; AAVS1, CB CD34+, vs standard, all AAV6 doses, FIG. 6B): 1.5 fold | increase in the percentage of targeted CD90+ cells (human CD34+ cells [1]; AAVS1, cells for NSG transplantation, FIG. 10B): 1.4 fold | editing efficiency (GFP expression) at IL2RG locus (human CD34+ cells [1]; IL2RG, FIG. 14I): significant editing efficiency increase | HDR edited alleles at AAVS1 locus (human CD34+ cells [1]; digital PCR in bulk culture, FIG. 14D): significantly increased | HDR-events integrations increase in AAVS1 locus of HSPCs (human CD34+ cells [1]; discussion): 1.5 fold | editing efficiency by molecular analyses on genomic DNA (human CD34+ cells [1]; human HSPC, FIG. 8B): reproducibly able to boost editing | mean increase in the fraction of GFP+ cells compared to the standard (human CD34+ cells [1]; side-by-side, AAVS1, 4 days, FIG. 7A): 1.45 fold | editing efficiency with editing at day 0 to day 2 post-thawing (human CD34+ cells [1]; total bulk and CD90+ fraction, AAVS1, FIG. 14K): editing efficiency was increased | HDR-mediated integration (genomic DNA) (human CD34+ cells [1]; vs standard, FIG. 10D): increase levels of HDR-mediated integration | increase in number of myeloid and erythroid colony forming units (CFU) compared to standard (human CD34+ cells [2]; FIG. 7C): 2 fold | erythroid and myeloid clonogenic output compared to standard protocol (human CD34+ cells [2]): not affected | CDK2 expression (CDK2): significantly up-regulated | CD90+ fraction in culture composition (human CD34+ cells [3]; 96 hours, FIG. 14E): significant skewing | culture composition (human CD34+ cells [3]; FIG. 10C): without any skew in the culture composition | human CD45+ cell engraftment in bloodstream, between groups ([4]; AAVS1, T0eq=3×10^5/mouse, FIG. 17B): did not show any statistical significance | increase of the fraction of circulating edited cells ([4]; AAVS1, T0eq=3×10^5/mouse, primary transplant, FIG. 17C): 1.5 fold | fraction of edited cells (GFP+ or HDR+) in blood, hematopoietic organs and blood lineages ([4]; AAVS1 edited CB CD34+, FIG. 11): significant higher fraction of edited cells | overall level of engraftment of the human cells ([4]; AAVS1 edited CB CD34+, FIG. 11): does not affect the overall level of engraftment
